US8357523B2, “Beta-glucosidase variant enzymes and related polynucleotides” (Codexis, Inc., priority 2009, dated 2013)

Assay: High throughput cellobiose assay: fold improvement in cellobiase activity of CelA variants over a control enzyme (Tables 2A-2D, 3, 5, 6, 7)
Assay type: biochemical
Conditions: 3.3 g/l cellobiose, 55° C. and pH 6.0

B1: 110 (protein)
chain: STAIAQEGAAPAAILHPEKWPRPATQRLIDPAVEKRVDALLKQLSVEEKVGQVIQGDIGTITPEDLRKYPLGSILAGGNSGPNGDDRAPPKEWLDLADAFYRVSLEKRPGHTPIPVLFGIDAVHGHGNIGSATIFPHNIALGATRDPELLRRIGEVTAVEMAATGIDWTFAPALSVVRDDRWGRTYEGFSEDPEIVAAYSAAIVEGVQGKFGSKDFMAPGRIVASAKHFLADGGTDQGRDQGDARISEDELIRIHNAGYPPAIDAGVLTVMASFSSWQGIKHHGHKQLLTDVLKGQMGFNGFIVGDWNAHDQVPGCTKFNCPTSLIAGLDMYMAADSWKQLYENTLAQVKDGTIPMARLDDAVRRILRVKVLAGLFEKPAPKDRPGLPGLETLGSPEHRAVGREAVRKSLVLLKNDKGTLPLSPKARVLVAGDGADNIGKQSGGWTISWQGTGNRNDEFPGATSILGGIRDAVADAGGSVEFDVAGQYKTKPDVAIVVFGEEPYAEFQGDVETLEYQPDQKQDLALLKKLKDQGIPVVAVFLSGRPMWVNPELNASDAFVAAWLPGTEGGGVADVLFTDKAGKVQHDFAGKLSYSWPRTAAQTTVNRGDADYNPLFAYGYGLTYKDKSKVGTLPEESGVPAE
With B1 the “Fold improvement over Control Variant No. 5 from Table 2A” value was “++ (++ = 1.1 to 6 fold improvement over control Variant No. 2)”.

B2: 111 (protein)
chain: STAIAQEGAAPAAILHPEKWPRPATQRLIDPAVEKRVDALLKQLSVEEKVGQVIQGDIGTITPEDLRKYPLGSILAGGNSGPNGDDRAPPKEWLDLADAFYRVSLEKRPGHTPIPVLFGIDAVHGHGNIGSATIFPHNIALGATRDPELLRRIGEVTAVEMAATGIDWTFAPALSVVRDDRWGRTYEGFSEDPEIVAAYSAAIVEGVQGKFGSKDFMAPGRIVASAKHFLADGGTDQGRDQGDARISEDELIRIHNAGYPPAIDAGVLTVMASFSSWQGIKHHGHKQLLTDVLKGQMGFNGFIVGDWNAHDQVPGCTKFNCPTSLIAGLDMYMAADSWKQLYENTLAQVKDGTIPMARLDDAVRRILRVKVLAGLFEKPAPKDRPGLPGLETLGSPEHRAVGREAVRKSLVLLKNDKGTLPLSPKARVLVAGDGADNIGKQSGGWTISWQGTGNRNDEFPGATSILGGIRDAVADAGGSVEFDVAGQYKTKPDVAIVVFGEEPYAEFQGDVETLEYQPDQKQDLALLKKLKDQGIPVVAVFLSGRPMWVNPELNASDAFVAAWLPGTEGGGVADVLFTDKAGKVQHDFAGKLSYSWPRTAAQTTVNRGDADYNPLFAYGYGLTYKDKSKVGTLPEESGVPAEARQNAGIYFR
In the case of B2, the “Fold improvement over Control Variant No. 5 from Table 2A” value is reported as “++ (++ = 1.1 to 6 fold improvement over control Variant No. 2)”.

B3: 112 (protein)
chain: STAIAQEGAAPAAILHPEKWPRPATQRLIDPAVEKRVDALLKQLSVEEKVGQVIQGDIGTITPEDLRKYPLGSILAGGDSGPNGDDRAPPKEWLDLADAFYRVSLEKRPGHTPIPVLFGIDAVHGHGKIGSATIFPHNIALGMTRDPELLRRIGEVTAEEMAATGIDWTFAPCLSVVRDDRWGRTYEGFSEDPEIVAAYSAAIVEGVQGKFGSKDFMAPGRIVASAKHFLADGGTDQGRDQGDARISEDELIRIHNAGYPPAIDAGVLTVMASFSSWQGIKHHGHKQLLTDVLKGQMGFNGFIVGDWNAHDQVPGCTKFNCPTSLIAGLDMYMAADSWKQLYENTLAQVKDGTIPMARLDDAVRRILRVKVLAGLFEKPAPKDRPGLPGLETLGSPEHRAVGREAVRKSLVLLKNDKGTLPLSPKARVLVAGDGADNIGKQSGGWTISWQGTGNRNDEFPGATSILGGIRDAVADAGGSVEFDVAGQYKTKPDVAIVVFGEEPYAEFQGDVETLEYQPDQKQDLALLKKLKDQGIPVVAVFLSGRPMWVNPELNASDAFVAAWLPGTEGGGVADVLFTDKAGKVQHDFAGKLSYSWPRTAAQTTVNRGDADYNPLFAYGYGLTYKDKSKVGTLPEESGVPAEARQNAGIYFRAGALRLPGRFL
With B3 the “Fold improvement over Control Variant No. 5 from Table 2A” value was “+++ (+++ = 6 to 13 fold improvement over control Variant No. 2)”.

B4: 115 (protein)
chain: STAIAQEGAAPAAILHPEKWPRPATQRLIDPAVEKRVDALLKQLSVEEKVGQVIQGDIGTITPEDLRKYPLGSILAGGDSGPNGDDRAPPKEWLDLADAFYRVSLEKRPGHTPIPVLFGIDAVHGHGKIGSATIFPHNIALGATRDPELLRRIGEVTAVEMATTGIDWTFAPCLSVVRDDRWGRTYEGFSEDPEIVAAYSPAIVEGVQGKYGSKDFMAPGRIVACAKHFLADGGTDQGRDQGDARISEDELIRIHNAGYPPAIDAGVLTVMASFSSWQGIKHHGHKQLLTDVLKGQMGFNGFIVGDWNAHDQVPGCTKFNCPTSLIAGLDMYMAADSWKQLYENTLAQVKDGTIPMARLDDAVRRILRVKVLAGLFEKPAPKDRPGLPGLETLGSPEHRAVGREAVRKSLVLLKNDKGTLPLSPKARVLVAGDGADNIGKQSGGWTISWQGTGNRNDEFPGATSILGGIRDAVADAGGSVEFDVAGRYKTKPDVAIVVFGEEPYAEFQGDVETLEYQPDQKQDLALLKKLKDQGIPVVAVFLSGRPMWVNPELNASDAFVAPWLPGTEGGGVADVLFTDKAGKVQHDFAGKLSYSWPRTAAQTTVNRGDADYNPLFAYGYGLTYKDKSKVGTLPEESGVPAEARQNAGIYFRAGALRLPGRFL
For B4, the “Fold improvement over Control Variant No. 5 from Table 2A” value was “++ (++ = 1.1 to 6 fold improvement over control Variant No. 2)”.

B5: 116 (protein)
chain: STAIAQEGAAPAAILHPEKWPRPATQRLIDPAVEKRVDALLKQLSVEEKVGQVIQGDIGTITPEDLRKYPLGSILAGGDSGPNGDDRAPPKEWLDLADAFYRVSLEKRPGHTPIPVLFGIDAVHGHGKIGSATIFPHNIALGATRDPELLRRIGEVTAVEMTATGIDWTFAPALSVVRDDRWGRTYEGFSEDPEIVAAYSAAIVEGVQGKYGSKDFMAPGRIVACAKHFLADGGTDQGRDQGDARISEDELIRIHNAGYPPAIDAGVLTVMASFSSWQGIKHHGHKQLLTDVLKGQMGFNGFIVGDWNAHDQVPGCTKFNCPTSLIAGLDMYMAADSWKQLYENTLAQVKDGTIPMARLDDAVRRILRVKVLAGLFEKPAPKDRPGLPGLETLGSPEHRAVGREAVRKSLVLLKNDKGTLPLSPKARVLVAGDGADNIGKQSGGWTISWQGTGNRNDEFPGATSILGGIRDAVADAGGSVEFDVAGQYKTKPDVAIVVFGEEPYAEFQGDVETLEYQPDQKQDLALLKKLKDQGIPVVAVFLSGRPMWVNPELNASDAFVAAWLPGTEGGGVADVLFTDKAGKVQHDFAGKLSYSWPRTAAQTTVNRGDADYNPLFAYGYGLTYQDKSKVGTLPEESGVPAEARQNAGIYFRAGALRLPGRFL
In the case of B5, the “Fold improvement over Control Variant No. 5 from Table 2A” value is reported as “+++ (+++ = 6 to 13 fold improvement over control Variant No. 2)”.

B6: 118 (protein)
chain: STAIAQEGAAPAAILHPEKWPRPATQRLIDPAVEKRVDALLKQLSVEEKVGQVIQGDIGTITPEDLRKYPLGSILAGGDSGPNGDDRAPPKEWLDLADAFYRVSLEKRPGHTPIPVLFGIDAVHGHGKIGSATIFPHNIALGMTRDPELLRRIGEVTAVEMTATGIDWTFAPALSVVRDDRWGRTYEGFSEDPEIVASYSAAIVEGVQGKYGSKDFMAPGRSVACAKHFLADGGTDQGRDQGDARISEDELIRIHNAGYPPAIDAGVLTVMASFSSWQGIKHHGHKQLLTDVLKGQMGFNGFIVGDWNAHDQVPGCTKFNCPTSLIAGLDMYMAADSWKQLYENTLAQVKDGTIPMARLDDAVRRILRVKVLAGLFEKPAPKDRPGLPGLETLGSPEHRAVGREAVRKSLVLLKNDKGTLPLSPKARVLVAGDGADNIGKQSGGWTISWQGTGNRNDEFPGATSILGGIRDAVADAGGSVEFDVAGQYKTKPDVAIVVFGEEPYAEFQGDVETLEYQPDQKQDLALLKKLKDQGIPVVAVFLSGRPMWVNPELNASDAFVAAWLPGTEGGGVADVLFTDKAGKVQHDFAGKLSYSWPRTAAQTTVNRGDADYNPLFAYGYGLTYKDKSKVGTLPEESGVPAEARQNAGIYFRAGALRLPGRFL
In the case of B6, the “Fold improvement over Control Variant No. 5 from Table 2A” value is reported as “+++ (+++ = 6 to 13 fold improvement over control Variant No. 2)”.

B7: 114 (protein)
chain: STAIAQEGAAPAAILHPEKWPRPATQRLIDPAVEKRVDALLKQLSVEEKVGQVIQGDIGTITPEDLRKYPLGSILAGGDSGPNGDDRAPPKEWLDLTDAFYRVSLEKRPGHTPIPVLFGIDAVHGHGKIGSATIFPHNIALGMTRDPELLRRIGEVTAEEMAATGIDWTFAPCLSVVRDDRWGRTYEGFSEDPEIVAAYSAAIVEGVQGKYGSKDFMAPGRIVASAKHFLADGGTDQGRDQGDARISEDELIRIHNAGYPPAIDAGVLTVMASFSSWQGIKHHGHKQLLTDVLKGQMGFNGFIVGDWNAHDQVPGCTKFNCPTSLIAGLDMYMAADSWKQLYENTLAQVKDGTIPMARLDDAVRRILRVKVLAGLFEKPAPKDRPGLPGLETLGSPEHRAVGREAVRKSLVLLKNDKGTLPLSPKARVLVAGDGADNIGKQSGGWTISWQGTGNRNDEFPGATSILGGIRDAVADAGGSVEFDVAGQYKTKPDVAIVVFGEEPYAEFRGDVETLEYQPDQKQDLALLKKLKDQGIPVVAVFLSGRPMWVNPELNASDAFVAAWLPGTEGGGVADVLFTDKAGKVQHDFAGKLSYSWPRTAAQTTVNRGDADYNPLFAYGYGLTYKDKSKVGTLPEESGVPAEARQNAGIYFRAGALRLPGRFL
For B7, the “Fold improvement over Control Variant No. 5 from Table 2A” value was “+++ (+++ = 6 to 13 fold improvement over control Variant No. 2)”.

B8: 113 (protein)
chain: STAIAQEGAAPAAILHPEKWPRPATQRLIDPAVEKRVDALLKQLSVEEKVGQVIQGDIGTITPEDLRKYPLGSILAGGNSGPNGDDRAPPKEWLDLADAFYRVSLEKRPGHTPIPVLFGIDAVHGHGKIGSATIFPHNIALGMTRDPELLRRIGEVTAQEMAATGIDWTFAPALSVVRDDRWGRTYEGFSEDPEIVAAYSPAIVEGVQGKYGSKDFMAPGRIVACAKHFLADGGTDQGRDQGDARISEDELIRIHNAGYPPAIDAGVLTVMASFSSWQGIKHHGHKQLLTDVLKGQMGFNGFIVGDWNAHDQVPGCTKFNCPTSLIAGLDMYMAADSWKQLYENTLAQVKDGTIPMARLDDAVRRILRVKVLAGLFEKPAPKDRPGLPGLETLGSPEHRAVGREAVRKSLVLLKNDKGTLPLSPKARVLVAGDGADNIGKQSGGWTISWQGTGNRNDEFPGATSILGGIRDAVADAGGSVEFDVAGQYKTKPDVAIVVFGEEPYAEFQGDVETLEYQPDQKQDLALLKKLKDQGIPVVAVFLSGRPMWVNPELNASDAFVAAWLPGTEGGGVADVLFTDKAGKVQHDFAGKLSYSWPRTAAQTTVNRGDADYNPLFAYGYGLTYKDKSKVGTLPEESGVPAEARQNAGIYFRAGALRLPGRFL
For B8, the “Fold improvement over Control Variant No. 5 from Table 2A” value was “+++ (+++ = 6 to 13 fold improvement over control Variant No. 2)”.
